{"source": "paper PMC10910542", "about": "(Acta Crystallographica. Section D, Structural Biology, 2024)", "molecules": {"B1": {"name": "MKbur (Methanococcoides burtonii DSM 6242) (protein)", "chain": "MITCSAPGKVYLFGEHAVVYGEPAICCAVDIRTRVTVSPADTITISSSLGTTGIDFEVHPYVSAVLERFQDISSFDGVDLRISSDIPVGSGLGSSAAVTVATIKAMDTLLDLGLELDDIAKMGHEVEQNIQGTASPTDTYVCTMGGVVLIPQRKKLELIDCGILIGNTNIFSSTKELVGNVADLNERFPDVVGPVLSSIGKLSVIGEGLVNDRDYVSVGELMNIDQGLLDAIGVSCAELSSLIYAARESGAYGSKITGAGGGGCMVAISPRENVDSVAEAIGMAGGKVVVANATDIGVRVECQ"}, "B2": {"name": "MKmaz (Methanosarcina mazei Go1) (protein)", "chain": "MVSCSAPGKIYLFGEHAVVYGETAIACAVELRTRVRAELNDSITIQSQIGRTGLDFEKHPYVSAVIEKMRKSIPINGVFLTVDSDIPVGSGLGSSAAVTIASIGALNELFGFGLSLQEIAKLGHEIEIKVQGAASPTDTYVSTFGGVVTIPERRKLKTPDCGIVIGDTGVFSSTKELVANVRQLRESYPDLIEPLMTSIGKISRIGEQLVLSGDYASIGRLMNVNQGLLDALGVNILELSQLIYSARAAGAFGAKITGAGGGGCMVALTAPEKCNQVAEAVAGAGGKVTITKPTEQGLKVD"}, "B3": {"name": "MKvar (Ramazzottius varieornatus) (protein)", "chain": "MSNLRHLRVSAPGKIILHGEHAVVYQKTAVALSLGLRTRLDLTETTDGRISIIMDKFLQHTSWSVEELSKIIDKVKIDANNPETELDQELVEDLRMMTSGHHYQNGDGPAVGNPQAYSTQSVALVGFLYILVKLCKFSGKQRPPSIQISISSDIAISAGLGSSAAFAVCLSASLLSYLGIIVCDRKNCADVDGKLVPSADQLALINHWAFMVEKIVHGSASGVDNAVSTYGGSIKYRNNELTRIGSGLKLDVLIVDTHVQRDTKKMLDIVRHRRKLYPAITNPVLEAIDGISETSSKILQHGDGLPTGEEYEVIADLVRMNQNLLSTLGVSHPKLDVICETASRFGQAGKLTGAGGGGCAIVVLDPDMRQFEHLRESIIAEYRRMEFKPHLAELGGPGVLFHPVP"}}, "key": {"MKbur": {"target": "T1, MKbur (Methanococcoides burtonii, UniProt Q12TI0)", "T1 construct": "gene mvk", "assay": "residual activity, coupled assay", "assay_type": "biochemical", "settings": "1.5 mM mevalonate, 3 mM ATP"}, "MKvar": {"target": "T2, MKvar (Ramazzottius varieornatus, UniProt A0A1D1VW28)", "T2 construct": "gene RvY_15762-1", "T2 sequence (A0A1D1VW28 1-405)": "B3 chain", "assay": "residual activity, coupled assay", "assay_type": "biochemical"}, "MKmaz": {"target": "T3, MKmaz (Methanosarcina mazei, UniProt Q8PW39)", "T3 construct": "gene mvk", "T3 sequence (Q8PW39 1-301)": "B2 chain", "assay": "residual activity, coupled assay", "assay_type": "biochemical"}, "purified protein [1]": {"substrate": "CC(O)(CCO)CC(=O)O", "assay": "purified protein", "settings": "5 mM ATP, Mg2+ 10 mM, 25 °C, racemic mevalonate"}, "purified protein [2]": {"substrate": "Nc1ncnc2c1ncn2[C@@H]1O[C@H](COP(=O)(O)OP(=O)(O)OP(=O)(O)O)[C@@H](O)[C@H]1O", "assay": "purified protein", "settings": "5 mM (RS)-mevalonate, Mg2+ 10 mM, 25 °C"}}}
{"molecule": "CC(C)=CCC/C(C)=C/COP(=O)(O)OP(=O)(O)O", "note": "[geranyl pyrophosphate]", "values": [{"measurement": "% residual activity at 100 μM", "setting": "MKbur", "result": "MKbur, like MKmaz, appears to be less sensitive to inhibition"}, {"measurement": "remaining activity at 100 µM", "setting": "MKvar", "result": "< 20", "unit": "%"}, {"measurement": "remaining activity at 100 µM", "setting": "MKmaz", "result": 92, "unit": "%"}]}
{"molecule": "CC(C)=CCC/C(C)=C/CC/C(C)=C/COP(=O)(O)OP(=O)(O)O", "note": "[farnesyl pyrophosphate]", "values": [{"measurement": "% residual activity at 100 μM", "setting": "MKbur", "result": "MKbur, like MKmaz, appears to be less sensitive to inhibition"}, {"measurement": "remaining activity at 100 µM", "setting": "MKvar", "result": 0.4, "unit": "%"}, {"measurement": "remaining activity at 100 µM", "setting": "MKmaz", "result": 70, "unit": "%"}]}
{"molecule": "B1", "values": [{"measurement": "Km", "setting": "purified protein [1]", "result": "55 ± 11", "unit": "µM"}, {"measurement": "kcat", "setting": "purified protein [1]", "result": 5, "unit": "s⁻¹"}, {"measurement": "kcat/Km", "setting": "purified protein [1]", "result": 90000, "unit": "M⁻¹ s⁻¹"}, {"measurement": "Km", "setting": "purified protein [2]", "result": "331 ± 63", "unit": "µM"}]}
{"molecule": "B2", "values": [{"measurement": "Km", "setting": "purified protein [1]", "result": "123 ± 9", "unit": "µM"}, {"measurement": "kcat", "setting": "purified protein [1]", "result": 10, "unit": "s⁻¹"}, {"measurement": "kcat/Km", "setting": "purified protein [1]", "result": 81000, "unit": "M⁻¹ s⁻¹"}, {"measurement": "Km", "setting": "purified protein [2]", "result": "511 ± 48", "unit": "µM"}]}
{"molecule": "B3", "values": [{"measurement": "Km", "setting": "purified protein [1]", "result": "237 ± 68", "unit": "µM"}, {"measurement": "kcat", "setting": "purified protein [1]", "result": "5 ± 0.8", "unit": "s⁻¹"}, {"measurement": "kcat/Km", "setting": "purified protein [1]", "result": 21000, "unit": "M⁻¹ s⁻¹"}, {"measurement": "Km", "setting": "purified protein [2]", "result": "4844 ± 1413", "unit": "µM"}]}
